Substitutions are numbered along the chain they refer to.
B1: PnFX-62D/63H/106K/110L/113K/351S (protein)
chain: MAPSRANTSVIVVGGGGTIGSSTALHLVRSGYTPSNVTVLDAYPIPSSQSAGNDLNKIMGVDHRNPVDLQLALEARQMWNEDELFKKFFHNTGRLDCAHGEKDIAKLKSLYQKLVDAGLDATNEWLDSEDEILKRMPLLSRDQIKGWKAIFSKDGGWLAAAKAINAVGEYLRDQGVRFGFYGAGSFKAPLLAEGVCIGVETVDGTRYYADKVVLAAGAWSPTLVELHEQCVSKAWVYGHIQLTPEEAARYKNSPVVYNGDVGFFFEPNEHGVIKVCDEFPGFTRFKMHQPFGAKAPKRISVPRSHAKHPTDTIPDASDVSIRRAIATFMPQFKNKKMFNQAMCWCTDTADSALLICEHPEWKNFVLATGDSGHSFKLLPNIGKHVVELLEGTLADDLAHAWRWRPGSGDALKSRRSAPAKDLADMPGWNHDKPRANL
B2: PnFX-62D/63H/106K/110L/113K/351S-64S (protein)
chain: B1 chain with R64S
B3: NvFX-62D/63H/106K/110L (protein)
chain: MTTPRKETTVLIIGGGGTIGSSTALHLLRAGYTPSNITVLDTYPIPSAQSAGNDLNKIMGIDHRNKVDLQLSLEARDMWRNDALFRPFFHNTGRLDCESSAEGVEKLRRLYQKLVEAGVGLEETHEWLDSEEAILEKAPLLQREEIEGWKAIWSEEGGWLAAAKAINAIGEELQRQGVRFGFGGAGSFKRPLFADDGTTCIGVETVDGTQYHADKVVLAAGAWSPALVDLEEQCCSKAWVYAHMQLTPEEAAVYKGCPVVYHGDVGFFFEPNENGVIKVCDEFPGFTRFKQHQPYGAPAPKPVSVPRSHAKHPTDTYPDASEESIKRAVSTFLPRFKDKPLFNRALCWCTDTADSALLICEHPRWKNFILATGDSGHSFKLLPIIGKHVVELVEGRLADDLAEAWRWRPGQGDARKSIRAAPAKDLADMPGWKHDQDSESR
B4: NvFX-62D/63H/106K/110L-64T (protein)
chain: B3 chain with R64T
B5: NvFX-62D/63H/106K/110L-64M (protein)
chain: B3 chain with R64M
B6: NvFX-62D/63H/106K/110L-64S (protein)
chain: B3 chain with R64S
B7: CFP-T7-H38-V (protein)
chain: MTSNRADTRVIVVGGGGTIGSSTALHLVRSGYAPANITVLDTFEIPSAQSAGHDLNKIMGIDHVNKVNLQMSLEARQMWKEDELFQPFFHNTGRMDCEHTPKGIEKLKKLYQKLHDAGAGLEKTHAWLDNEDEILSKMPLLQRDQIQGWKAIWSQDGGWLAAAKAINAIGQFLKERGVKFGFGGAGSFKQPLFDDEGTTCIGVETADGTKYYADKVVLAAGAWSPTLVDLEDQCCSKAWVYAHIQLTPEEAAEYKGVPVVYNGEFGFFFEPDEFGVIKVCDEFPGFSRFKEHQPYGAPSPKRISVPRSHAKHPTDTYPDASEVSIKKAIATFLPRFQDKELFNRALCWCTDTADSTLLMCEHPKWKNFILATGDSGHSFKILPNVGKYVVELIEGRLPEEMAYQWRWRPGGDALKSRRAAPPKDLADMPGWKHDPKL
B8: CFP-T7-H38-S (protein)
chain: B7 chain with V64S
B9: CFP-T7-H38-GYS (protein)
chain: B7 chain with V64G, H99S, L110Y
B10: CFP-T7-H38-GF (protein)
chain: B7 chain with V64G, L110F
B11: CFP-T7-H38-I (protein)
chain: B7 chain with V64I
B12: CFP-T7-H38-GH (protein)
chain: B7 chain with V64G, L110H
B13: CFP-T7-H37 (protein)
chain: B7 chain with V64R
B14: CFP-T7-H38-G (protein)
chain: B7 chain with V64G
B15: CFP-T7-H38-M (protein)
chain: B7 chain with V64M
B16: CFP-T7-H38-A (protein)
chain: B7 chain with V64A
B17: CFP-T7-H38-GY (protein)
chain: B7 chain with V64G, L110Y
B18: CFP-T7-H38-T (protein)
chain: B7 chain with V64T
B19: CFP-T7-H38-L (protein)
chain: B7 chain with V64L
B20: CFP-DH2 (protein)
chain: MTSNRADTRVIVVGGGGTIGSSTALHLVRSGYAPANITVLDTFPIPSAQSAGHDLNKIMGIDHRNKVNLQMSLEARQMWKEDELFQPFFHNTGRMDCEHTPKGIEKLKKLYQKLHDAGAGLEKTHAWLDNEDAILSKMPLLQRDQIQGWKAIWSQDGGWLAAAKAINAIGQFLKERGVKFGFGGAGSFKQPLFDDEGTTCIGVETADGTKYYADKVVLAAGAWSPTLVDLEDQCCSKAWVYAHIQLTPEEAAKYKGCPVVYHGEFGFFFEPDEFGVIKVCDEFPGFSRFKEHQPYGAPSPKRISVPRSHAKHPTDTYPDASEVSIKKAIATFLPRFKDKPLFNRALCWCTDTADSTLLMCEHPKWKNFILATGDSGHSFKILPNVGKYVVELIEGRLPEEMAYQWRWRPGGDALKSRRAAPPKDLADMPGWKHD
B21: CFP-DH3 (protein)
chain: B20 chain with R64G
B22: CcFX-62D/63H/102K/106K (protein)
chain: MAPSRANTSVIVVGGGGTIGSSTALHLVRSGYTPSNITVLDTYPIPSAQSAGNDLNKIMGIDHRNKVDLQLSLEARQMWREDDLFKEYFHNTGRLDCAHGEKGLAKLRQAYQALLDANAGLEETTEWLDSEDEILKKMPLLDREQIKGWKAVYSQDGGWLAAAKAINAIGEYLRAQGVKFGFGGAGSFKQPLLAEGVCIGVETVDGTRYYADKVVLAAGAWSPVLVDLEDQCVSKAWVYAHIQLTPEEAAEYKNVPVVYNGDVGFFFEPDEHGVIKVCDEFPGFTRFKQHQPYGAKAPKRISVPRSAAKHPTDTYPDASEKSIRKAIATFLPKFTEKELFNRHLCWCTDTADAALLMCEHPEWKNFVLATGDSGHTFKLLPNIGKHVVELLEGTLAEDLAHAWRWRPGTGDALKSRRAAPAKDLADMPGWKHDDVVKSKL
B23: CcFX-62D/63H/102K/106K-64T (protein)
chain: B22 chain with R64T
B24: CcFX-62D/63H/102K/106K-64L (protein)
chain: B22 chain with R64L

Target: T1, α-fructosyl-valyl-histidyl-leucyl-threonyl-prolyl-glutamyl-glutamyl-lysine (not fully specified)
T1 chain: VHLTPEEK
Work on B1 yielded a Specific activity (mU/mg), 10 µM αF8P of 2 mU/mg. B2 was tested, and the Specific activity (mU/mg), 10 µM αF8P was 2.2 mU/mg. In the case of B3, the Specific activity (mU/mg), 10 µM αF8P is reported as 0.3 mU/mg. For B4, the Specific activity (mU/mg), 10 µM αF8P was 0.38 mU/mg. For B5, the Specific activity (mU/mg), 10 µM αF8P was 0.42 mU/mg. For B6, the Specific activity (mU/mg), 10 µM αF8P was 0.37 mU/mg. Work on B7 yielded a Specific activity (mU/mg), 10 µM αF8P of 86 mU/mg. B8 showed a Specific activity (mU/mg), 10 µM αF8P of 89.7 mU/mg. In the case of B9, the Specific activity (mU/mg), 10 µM αF8P is reported as 196 mU/mg. B10 gave a Specific activity (mU/mg), 10 µM αF8P of 145 mU/mg. Protein B11 has a Specific activity (mU/mg), 10 µM αF8P of 78.7 mU/mg. B12 gave a Specific activity (mU/mg), 10 µM αF8P of 143 mU/mg. Protein B13 has a Specific activity (U/mg), 1 mM αF8P of 4.18 U/mg and a Specific activity (mU/mg), 10 µM αF8P of 44.4 mU/mg. B14 was tested, and the Specific activity (U/mg), 1 mM αF8P was 6.33 U/mg, the Specific activity (mU/mg), 10 µM αF8P was 95.9 mU/mg and the “fold improvement of specific activity on αF8P against CFP-T7-H37” value was “by 1.51 to 1.75 times”. With B15 the Specific activity (mU/mg), 10 µM αF8P was 84.4 mU/mg. With B16 the Specific activity (U/mg), 1 mM αF8P was 3.26 U/mg. Work on B17 yielded a Specific activity (mU/mg), 10 µM αF8P of 174 mU/mg. B18 gave a Specific activity (mU/mg), 10 µM αF8P of 78.7 mU/mg. B19 gave a Specific activity (mU/mg), 10 µM αF8P of 84.3 mU/mg. Protein B20 has a Specific activity (U/mg), 1 mM αF8P of 2.8 U/mg. In the case of B21, the Specific activity (U/mg), 1 mM αF8P is reported as 4.9 U/mg and the “fold improvement of specific activity on αF8P against CFP-DH2” value is reported as “by 1.51 to 1.75 times”. With B22 the Specific activity (mU/mg), 10 µM αF8P was 1.3 mU/mg. In the case of B23, the Specific activity (mU/mg), 10 µM αF8P is reported as 1.5 mU/mg. Protein B24 has a Specific activity (mU/mg), 10 µM αF8P of 2 mU/mg.

From patent US20180371429
